Data on one substance can be found in patent US12195506B2, “Immunotherapy with A*01 restricted peptides and combination of peptides against cancers and related methods” (Immatics Biotechnologies GmbH, priority 2018, dated 2025).

One experiment concerns the target HLA-A*01:01 (Homo sapiens, UniProt P04439, A114D/A174V/A182V/D101N/D185E/E176A/E190D/L180R/Q94H/R68K/S129P/T187R/V100A/V91M/W191G). Nature of the experiment: MHC binding assay: UV-ligand exchange, ELISA of stabilized MHC complexes (peptide exchange yield). To be noted: binding to HLA-A*01:01, UV-ligand exchange. The procedure, abridged: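 Peptide–MHC complexes were formed by UV-induced exchange of a photocleavable ligand for the test peptide. Exchange yield was measured by streptavidin-capture ELISA of 100-fold diluted complexes, detected with HRP anti-β2m at A450. Refolded HLA-A*02:01/MLA-001 monomers at 15-500 ng/ml served as standards.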
(ELISA stands for enzyme-linked immunosorbent assay.)

A further experiment relates to CD8+ T cells. Briefly: In vitro T-cell priming assay with artificial antigen presenting cells loaded with peptide/MHC complexes and anti-CD28 antibody, pMHC multimer readout. The experiment is classed as cell-based, human. To be noted: Table 10b; in vitro immunogenicity, peptide-specific multimer+ CD8+ T cells. An excerpt:
In order to obtain information regarding the immunogenicity of the TUMAPs of the present invention, the inventors performed investigations using an in vitro T-cell priming assay based on repeated stimulations of CD8+ T cells with artificial antigen presenting cells (aAPCs) loaded with peptide/MHC complexes and anti-CD28 antibody.
In order to perform in vitro stimulations by artificial antigen presenting cells loaded with peptide-MHC complex (pMHC) and anti-CD28 antibody, the inventors first isolated CD8+ T cells from fresh HLA-A*02 leukapheresis products via positive selection using CD8 microbeads (Miltenyi Biotec, Bergisch-Gladbach, Germany) of healthy donors obtained from the University clinics Mannheim, Germany, after informed consent.
PBMCs and isolated CD8+ lymphocytes were incubated in T-cell medium (TCM) until use consisting of RPMI-Glutamax (Invitrogen, Karlsruhe, Germany) supplemented with 10% heat inactivated human AB serum (PAN-Biotech, Aidenbach, Germany), 100 U/ml Penicillin/100 μg/ml Streptomycin (Cambrex, Cologne, Germany), 1 mM sodium pyruvate (CC Pro, Oberdorla, Germany), 20 μg/ml Gentamycin (Cambrex). 2.5 ng/ml IL-7 (PromoCell, Heidelberg, Germany) and 10 U/ml IL-2 (Novartis Pharma, Nurnberg, Germany) were also added to the TCM at this step.
Generation of pMHC/anti-CD28 coated beads, T-cell stimulations and readout was performed in a highly defined in vitro system using four different pMHC molecules per stimulation condition and 8 different pMHC molecules per readout condition.
The purified co-stimulatory mouse IgG2a anti human CD28 Ab 9.3 (Jung et al., 1987) was chemically biotinylated using Sulfo-N-hydroxysuccinimidobiotin as recommended by the manufacturer (Perbio, Bonn, Germany). Beads used were 5.6 μm diameter streptavidin coated polystyrene particles (Bangs Laboratories, Illinois, USA).
pMHC used for positive and negative control stimulations were A*0201/MLA-001 (peptide […] (SEQ ID NO. 433) from modified Melan-A/MART-1) and A*0201/DDX5-001 ([…] from DDX5, SEQ ID NO. 434), respectively.
800.000 beads/200 μI were coated in 96-well plates in the presence of 4×12.5 ng different biotin-pMHC, washed and 600 ng biotin anti-CD28 were added subsequently in a volume of 200 μI. Stimulations were initiated in 96-well plates by co-incubating 1×10^6 CD8+ T cells with 2×10^5 washed coated beads in 200 μI TCM supplemented with 5 ng/ml IL-12 (PromoCell) for 3 days at 37° C. Half of the medium was then exchanged by fresh TCM supplemented with 80 U/ml IL-2 and incubating was continued for 4 days at 37° C. This stimulation cycle was performed for a total of three times. For the pMHC multimer readout using 8 different pMHC molecules per condition, a two-dimensional combinatorial coding approach was used as previously described (Andersen et al., 2012) with minor modifications encompassing coupling to 5 different fluorochromes. Finally, multimeric analyses were performed by staining the cells with Live/dead near IR dye (Invitrogen, Karlsruhe, Germany), CD8-FITC antibody clone SK1 (BD, Heidelberg, Germany) and fluorescent pMHC multimers. For analysis, a BD LSRII SORP cytometer equipped with appropriate lasers and filters was used. Peptide specific cells were calculated as percentage of total CD8+ cells. Evaluation of multimeric analysis was done using the FlowJo software (Tree Star, Oregon, USA). In vitro priming of specific multimer+CD8+ lymphocytes was detected by comparing to negative control stimulations.

On to “387 (LMEKEDYHSLY; listed as Homo sapiens) [compound 387]”, for which, in the experiment with HLA-A*01:01, the Peptide exchange entry was “+++ (>50 = +++)”. Moreover, in the experiment with CD8+ T cells, the “Wells positive [%]” value is listed as “+ (<20% = +)”.
